Test results from publication PMC4192513, “A Novel Protein-Protein Interaction in the RES (REtention and Splicing) Complex” (The Journal of Biological Chemistry, 2014).
Ends that are not written are not given here.

How the values were obtained:
Snu17p (residues 1–113) [1] = target: T1, Snu17p (residues 1–113) (Saccharomyces cerevisiae, UniProt P40565); experiment: Isothermal titration calorimetry (ITC) of Bud13p ligands binding to Snu17p; details: 25 °C, NMR buffer pH 6.3
T1 construct: The concentration of Snu17p (residues 1–113) in the cell (1440 μl) varied between 30 and 70 μM; His6 (N, cleaved yes); GST (N, cleaved yes); made in house; host or cells: Escherichia coli BL21(DE3) pLysS
T1 sequence (P40565 1-113): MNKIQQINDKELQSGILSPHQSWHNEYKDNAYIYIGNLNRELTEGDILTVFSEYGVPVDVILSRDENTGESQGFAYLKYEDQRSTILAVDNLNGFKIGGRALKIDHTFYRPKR
Description: (§1) Recombinant proteins were purified by sonicating the harvested cell pellet in 25 ml of lysis buffer (20 mM Tris, pH 7.5, 300 mM NaCl, 10 mM imidazole, 1 mM DTT, and 0.02% NaN3), also including protease inhibitors, RNase, lysozyme, and 0.2% IGEPAL. After high speed centrifugation (20,000 × g, 30 min) and filtering, each supernatant was applied to Ni-NTA-agarose resin (Qiagen). Several rounds of washing were performed with: lysis buffer including 0.2% IGEPAL, lysis buffer, lysis buffer with high salt concentration (1 M NaCl), and lysis buffer with high imidazole concentration (30 mM imidazole). Finally, each protein was eluted by applying 10 ml of a buffer containing 20 mM Tris, pH 7.5, 300 mM NaCl, 330 mM imidazole, 1 mM DTT, and 0.02% NaN3. Tobacco etch virus protease was added to each sample and incubated overnight at 4 °C. To remove the cleaved GST tag each sample was passed over a second Ni-NTA column. A second purification step included size exclusion chromatography (HiLoad, Superdex 75 16/60, GE Healthcare). In this step, proteins were buffer exchanged into the NMR buffer (20 mM sodium phosphate, pH 6.3, 25 mM NaCl, and 2 mM fresh DTT or Tris(2-carboxyethyl)phosphine, 0.02% NaN3). Stoichiometric hybrid-labeled samples were prepared by mixing excess Bud13p with Snu17p and performing another step of size exclusion chromatography (HiLoad, Superdex 75 16/60, GE Healthcare). […]

Snu17p (residues 1–113) [2] = target: T1, Snu17p (residues 1–113); experiment: NMR titration (1H,15N correlation spectra) of 15N-labeled Snu17p (residues 1–113) with Bud13p peptides; format: binding; details: 298 K, 20 mM sodium phosphate, pH 6.3, 25 mM NaCl
Description: Recombinant proteins were purified by sonicating the harvested cell pellet in 25 ml of lysis buffer (20 mM Tris, pH 7.5, 300 mM NaCl, 10 mM imidazole, 1 mM DTT, and 0.02% NaN3), also including protease inhibitors, RNase, lysozyme, and 0.2% IGEPAL. After high speed centrifugation (20,000 × g, 30 min) and filtering, each supernatant was applied to Ni-NTA-agarose resin (Qiagen). Several rounds of washing were performed with: lysis buffer including 0.2% IGEPAL, lysis buffer, lysis buffer with high salt concentration (1 M NaCl), and lysis buffer with high imidazole concentration (30 mM imidazole). Finally, each protein was eluted by applying 10 ml of a buffer containing 20 mM Tris, pH 7.5, 300 mM NaCl, 330 mM imidazole, 1 mM DTT, and 0.02% NaN3. Tobacco etch virus protease was added to each sample and incubated overnight at 4 °C. To remove the cleaved GST tag each sample was passed over a second Ni-NTA column. A second purification step included size exclusion chromatography (HiLoad, Superdex 75 16/60, GE Healthcare). In this step, proteins were buffer exchanged into the NMR buffer (20 mM sodium phosphate, pH 6.3, 25 mM NaCl, and 2 mM fresh DTT or Tris(2-carboxyethyl)phosphine, 0.02% NaN3). Stoichiometric hybrid-labeled samples were prepared by mixing excess Bud13p with Snu17p and performing another step of size exclusion chromatography (HiLoad, Superdex 75 16/60, GE Healthcare). Two shorter peptides of Bud13p (residues 221–242 or residues 225–238) were purchased from Peptide Specialty Laboratories (Heidelberg, Germany), and extensively dialyzed before binding experiments.
NMR spectra were recorded at 298 K on an AVIII800 Bruker NMR spectrometer equipped with a cryogenic triple resonance gradient probe. Spectra were processed using NMRPipe ([21]). Protein backbone and side chain assignments were obtained from standard triple resonance experiments ([22]). NOE distance restraints were obtained from ^15N- and ^13C-edited three-dimensional NOESY spectra (mixing time 70 ms) where only Snu17p or Bud13p proteins were labeled. Intermolecular NOE restraints were derived from three-dimensional ^15N,^13C-filtered, ^13C-edited NOESY spectra (mixing time 70 ms) ([22], [23]). Stereospecific assignments of pro-chiral methyl groups of valine and leucine were obtained using 10% ^13C-labeled protein samples ([24]).
To characterize the unexpected molecular features of the Snu17p-Bud13p interaction we proceeded with biophysical and structural characterization of the binary complex (Fig. 3). […] We tested binding to a series of Bud13p fragments to identify the minimum binding region in Bud13p (Fig. 3, a and b). NMR titrations confirmed binding to a Bud13p peptide encompassing residues 201–266 as has been shown previously ([20]).

Snu17p = experiment: NMR of 15N-labeled Bud13p in complex with unlabeled Snu17p; format: binding, Saccharomyces cerevisiae; details: 15N-labeled Bud13p (residues 222–256), 298 K
Description: as §1, with “NaN3).” for “NaN3). Stoichiometric hybrid-labeled samples were prepared by mixing excess Bud13p with Snu17p and performing another step of size exclusion chromatography (HiLoad, Superdex 75 16/60, GE Healthcare).”
(§2) NMR spectra were recorded at 298 K on an AVIII800 Bruker NMR spectrometer equipped with a cryogenic triple resonance gradient probe. […]

[3] = Precipitation / solubility of the sample on addition of Bud13p peptide to 15N-labeled Snu17p; format: physicochemical; details: addition to recombinant 15N-labeled Snu17p, NMR titration
Description: as §1

Snu17p (residues 25–113) = experiment: NMR chemical shift perturbation with shorter Snu17p protein (residues 25–113); format: binding, Saccharomyces cerevisiae; details: shorter Snu17p protein (residues 25–113) compared with residues 1–113; data not shown
Description: as §1, with “NaN3).” for “NaN3). Stoichiometric hybrid-labeled samples were prepared by mixing excess Bud13p with Snu17p and performing another step of size exclusion chromatography (HiLoad, Superdex 75 16/60, GE Healthcare).”
as §2

With “Bud13p^225-238: Bud13p residues 225–238, purchased from Peptide Specialty Laboratories (Heidelberg) (AIMPGSRWDGVHRS)” the “binding affinity (in words)” value (Snu17p (residues 1–113) [1]) was “binds very weakly” and the “NMR chemical shift perturbations (CSPs) of Snu17p” value (shortened to “NMR chemical shift perturbations”) (Snu17p (residues 1–113) [2]) was “hardly induced any NMR spectral changes for Snu17p”.
For “Bud13p^222-256: Bud13p residues 222–256, recombinant from E. coli; optimal Bud13p peptide, minimum interacting region”, the “NMR chemical shift perturbations” value (Snu17p (residues 1–113) [2]) was “large chemical shift changes, induced by Bud13p binding, map on the two helices plus adjacent loop regions of the Snu17p RRM-fold”, the “chemical shift changes in Bud13p spectra on binding to Snu17p” value (Snu17p) was “extensive chemical shift changes in Bud13p spectra” and the “precipitation / solubility of the sample” value [3] was “proteins remained in solution”. For the same substance, the “NMR CSPs induced by Bud13p binding” value (Snu17p (residues 25–113)) was “Virtually identical NMR CSPs”.
With ENRFAIMPGSRWDGVHRSNGFE [Bud13p^221-242] the “NMR chemical shift perturbations” value (Snu17p (residues 1–113) [2]) was “affected the same Snu17p residues but to a lesser extent compared with the longer ones”.
For “Bud13p^201-266: Bud13p residues 201–266, recombinant from E. coli, GST tag cleaved”, the “NMR chemical shift perturbations” value (Snu17p (residues 1–113) [2]) was “extensive chemical shift perturbations (CSPs)” and the “precipitation / solubility of the sample” value [3] was “led to precipitation of the sample”.
